B1: HCV E1 glycoprotein, H77 WT isolate [hepatitis C virus] / CD81 receptor [not stated] (parent complex)
chain 1: YQVRNSSGLYHVTNDCPNSSVVYEAADAILHTPGCVPCVREGNASRCWVAVTPTVATRDGKLPTTQLRRHIDLLVGSATLCSALYVGDLCGSVFLVGQLFTFSPRHHWTTQDCNCSIYPGHITGHRMAWNMMMNWSPTAALVVAQLLRIPQAIMDMIAGAHWGVLAGIKYFSMVGNWAKVLVVLLLFAGVDA
chain 2: MGVEGCTKCIKYLLFVFNFVFWLAGGVILGVALWLRHDPQTTNLLYLELGDKPAPNTFYVGIYILIAVGAVMMFVGFLGCYGAIQESQCLLGTFFTCLVILFACEVAAGIWGFVNKDQIAKDVKQFYDQALQQAVVDDDANNAKAVVKTFHETLDCCGSSTLTALTTSVLKNNLCPSGSNIISNLFKEDCHQKIDDLFSGKLYLIGIAAIVVAVIMIFEMILSMVLCCGIRNSSVY

The variants in the assay derive from B1. Kind of assay: CD81 receptor binding (method in S1 Text, not given); parent: 1; read off a plot.
With chain 1 YQVRNSSGLYHVTNDCPNSSVVYEAADAILHTPGCVPCVREGNASRCWVAVTPTVATRDGKLPTTQLRRHIDLLVGSATLASALYVGDLAGSVFLVGQLFTFSPRHHWTTQDCNCSIYPGHITGHRMAWNMMMNWSPTAALVVAQLLRIPQAIMDMIAGAHWGVLAGIKYFSMVGNWAKVLVVLLLFAGVDA [chain 1 C81A, chain 1 C90A], the ratio to parent is roughly 1.1.
As to chain 1 YQVRNSSGLYHVTNDAPNSSVVYEAADAILHTPGAVPCVREGNASRCWVAVTPTVATRDGKLPTTQLRRHIDLLVGSATLCSALYVGDLCGSVFLVGQLFTFSPRHHWTTQDCNCSIYPGHITGHRMAWNMMMNWSPTAALVVAQLLRIPQAIMDMIAGAHWGVLAGIKYFSMVGNWAKVLVVLLLFAGVDA [chain 1 C16A, chain 1 C35A], the ratio to parent is roughly 0.8.
For the variant chain 1 YQVCNSSGLYHVTNDCPNSSVVYEAADAILHTPGCVPCVREGNASRCWVAVTPTVATRDGKLPTTQLRRHIDLLVGSATLCSALYVGDLCGSVFLVGQLFTFSPRHHWTTCDCNCSIYPGHITGHRMAWNMMMNWSPTAALVVAQLLRIPQAIMDMIAGAHWGVLAGIKYFSMVGNWAKVLVVLLLFAGVDA [chain 1 R4C, chain 1 Q111C], the ratio to parent was roughly 0.6.
In the case of chain 1 YQVRNSSGLYHVTNDCPNSSVVYEAADAILHTPGCVPCVREGNASRAWVAVTPTVATRDGKLPTTQLRRHIDLLVGSATLCSALYVGDLCGSVFLVGQLFTFSPRHHWTTQDCNASIYPGHITGHRMAWNMMMNWSPTAALVVAQLLRIPQAIMDMIAGAHWGVLAGIKYFSMVGNWAKVLVVLLLFAGVDA [chain 1 C47A, chain 1 C115A], the ratio to parent is roughly 0.85.
Then chain 1 YQVRNSSGLYHVTNDCPNSSVVYEAADAILHTPGCVPAVREGNASRCWVAVTPTVATRDGKLPTTQLRRHIDLLVGSATLCSALYVGDLCGSVFLVGQLFTFSPRHHWTTQDANCSIYPGHITGHRMAWNMMMNWSPTAALVVAQLLRIPQAIMDMIAGAHWGVLAGIKYFSMVGNWAKVLVVLLLFAGVDA [chain 1 C38A, chain 1 C113A], with roughly 0.85.
Then chain 1 YQVRNSSGLYHVTNDCPNSSVVYCAADACLHTPGCVPCVREGNASRCWVAVTPTVATRDGKLPTTQLRRHIDLLVGSATLCSALYVGDLCGSVFLVGQLFTFSPRHHWTTQDCNCSIYPGHITGHRMAWNMMMNWSPTAALVVAQLLRIPQAIMDMIAGAHWGVLAGIKYFSMVGNWAKVLVVLLLFAGVDA [chain 1 E24C, chain 1 I29C], with roughly 0.65.
